Test results published in US20240116985A1 (published 2024).
Read-outs that look alike come from different tables or passages of the source. Starred links: 1 amine or outer side, 2 acyl side, 3 side chain; linkers in the order of their positions; H or OH if unused. Positions of bridges follow the written chain, without caps; N, C: chain ends. Non-standard residues stand in square brackets, D forms with d. Primed or numbered codes have the meaning given here. PyrS2″ = (S)-3-amino-1-((pent-4-en-1-yloxy)carbonyl)pyrrolidine-3-carboxylic acid (stapling residue), C=CCCCOC(=O)N1CC[C@@](N[*:1])(C(=O)[*:2])C1; B5(4) = 2,2-bis(4-pentenyl)glycine = 2-amino-2-(pent-4-en-1-yl)hept-6-enoic acid (stitching residue), C=CCCCC(CCCC=C)(N[*:1])C(=O)[*:2]; B5(5) = 2,2-bis(4-pentenyl)glycine, 2-amino-2-(pent-4-en-1-yl)hept-6-enoic acid (stitching residue), C=CCCCC(CCCC=C)(N[*:1])C(=O)[*:2]; TfeGA = (S)-2-amino-3-((carboxymethyl)(2,2,2-trifluoroethyl)amino)propanoic acid, O=C([C@H](CN(CC(=O)[*:3])CC(F)(F)F)N[*:1])[*:2]; PyrS2 = (S)-3-amino-1-((pent-4-en-1-yloxy)carbonyl)pyrrolidine-3-carboxylic acid, C=CCCCOC(=O)N1CC[C@@](N[*:1])(C(=O)[*:2])C1; Phe(3-COOH) = N[C@@H](Cc1cccc(C(=O)O)c1)C(=O)O; Phe(2-CF3) = N[C@@H](Cc1ccccc1C(F)(F)F)C(=O)O; Phe(3,5-F2) = N[C@@H](Cc1cc(F)cc(F)c1)C(=O)O; Phe(2-Cl) = N[C@@H](Cc1ccccc1Cl)C(=O)O; Bta = N[C@@H](Cc1csc2ccccc12)C(=O)O; Lys(iPr) = CC(C)NCCCC[C@H](N)C(=O)O; αAllylPro = C=CC[C@@]1(C(=O)O)CCCN1; tBuAla = CC(C)(C)C[C@H](N)C(=O)O; Cha = N[C@@H](CC1CCCCC1)C(=O)O; S8 = C=CCCCCCC[C@](C)(N)C(=O)O; Thr(ol) = C[C@@H](O)[C@H](N)CO

T1: beta-catenin in DLD1 TCF/LEF reporter cells (UniProt P35222 1-781)
T1 sequence (looked up): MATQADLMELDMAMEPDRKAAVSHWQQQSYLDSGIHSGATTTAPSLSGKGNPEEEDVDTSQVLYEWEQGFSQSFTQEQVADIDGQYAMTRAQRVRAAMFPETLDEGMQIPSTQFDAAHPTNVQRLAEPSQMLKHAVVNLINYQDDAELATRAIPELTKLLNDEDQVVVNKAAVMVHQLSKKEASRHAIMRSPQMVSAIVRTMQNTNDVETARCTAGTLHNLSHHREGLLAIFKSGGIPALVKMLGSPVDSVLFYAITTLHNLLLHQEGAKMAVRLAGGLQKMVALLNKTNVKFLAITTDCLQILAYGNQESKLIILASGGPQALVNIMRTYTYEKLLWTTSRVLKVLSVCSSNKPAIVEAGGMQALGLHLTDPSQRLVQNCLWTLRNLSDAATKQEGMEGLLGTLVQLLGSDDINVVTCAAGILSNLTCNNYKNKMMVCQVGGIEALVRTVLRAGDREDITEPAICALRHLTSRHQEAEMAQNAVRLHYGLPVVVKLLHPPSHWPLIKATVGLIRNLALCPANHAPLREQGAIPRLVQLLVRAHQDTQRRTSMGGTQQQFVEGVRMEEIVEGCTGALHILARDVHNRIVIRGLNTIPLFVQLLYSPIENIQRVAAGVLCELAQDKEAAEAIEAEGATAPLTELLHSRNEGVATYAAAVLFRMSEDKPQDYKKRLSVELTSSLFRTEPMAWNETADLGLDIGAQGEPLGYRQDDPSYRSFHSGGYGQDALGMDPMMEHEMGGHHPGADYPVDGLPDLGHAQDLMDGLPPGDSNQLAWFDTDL

T2: B-cat-Halo (UniProt P35222 1-781)
T2 sequence (looked up): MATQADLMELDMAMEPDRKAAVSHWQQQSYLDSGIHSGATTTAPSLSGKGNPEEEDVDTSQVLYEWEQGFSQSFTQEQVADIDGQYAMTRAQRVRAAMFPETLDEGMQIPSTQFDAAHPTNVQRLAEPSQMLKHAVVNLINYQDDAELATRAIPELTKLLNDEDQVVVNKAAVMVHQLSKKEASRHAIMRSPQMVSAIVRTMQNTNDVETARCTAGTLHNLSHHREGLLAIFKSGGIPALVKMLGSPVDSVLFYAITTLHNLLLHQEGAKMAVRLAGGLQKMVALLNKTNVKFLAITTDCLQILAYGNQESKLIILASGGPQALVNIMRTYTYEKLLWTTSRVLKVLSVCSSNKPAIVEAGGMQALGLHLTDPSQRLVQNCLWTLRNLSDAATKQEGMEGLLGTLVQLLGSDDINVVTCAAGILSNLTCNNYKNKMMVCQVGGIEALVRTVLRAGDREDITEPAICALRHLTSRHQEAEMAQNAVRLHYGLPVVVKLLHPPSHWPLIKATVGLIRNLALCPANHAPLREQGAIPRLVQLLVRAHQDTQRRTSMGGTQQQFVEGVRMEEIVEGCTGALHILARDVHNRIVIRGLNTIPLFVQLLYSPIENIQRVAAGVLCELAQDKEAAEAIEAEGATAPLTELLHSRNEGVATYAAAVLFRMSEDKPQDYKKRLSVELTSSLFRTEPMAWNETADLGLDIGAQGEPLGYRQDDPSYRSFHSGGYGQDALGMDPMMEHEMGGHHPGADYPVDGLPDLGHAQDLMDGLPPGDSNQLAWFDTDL

T3: full-length beta-Catenin (Uniprot ID P35222) (Homo sapiens (Human), UniProt P35222 2-781)
T3 construct: The AlphaScreen assay used a Histidine (Nickel Chelate) detection kit, so a His tag is likely, but no tag is described; also called B-Catenin; bCat
T3 sequence: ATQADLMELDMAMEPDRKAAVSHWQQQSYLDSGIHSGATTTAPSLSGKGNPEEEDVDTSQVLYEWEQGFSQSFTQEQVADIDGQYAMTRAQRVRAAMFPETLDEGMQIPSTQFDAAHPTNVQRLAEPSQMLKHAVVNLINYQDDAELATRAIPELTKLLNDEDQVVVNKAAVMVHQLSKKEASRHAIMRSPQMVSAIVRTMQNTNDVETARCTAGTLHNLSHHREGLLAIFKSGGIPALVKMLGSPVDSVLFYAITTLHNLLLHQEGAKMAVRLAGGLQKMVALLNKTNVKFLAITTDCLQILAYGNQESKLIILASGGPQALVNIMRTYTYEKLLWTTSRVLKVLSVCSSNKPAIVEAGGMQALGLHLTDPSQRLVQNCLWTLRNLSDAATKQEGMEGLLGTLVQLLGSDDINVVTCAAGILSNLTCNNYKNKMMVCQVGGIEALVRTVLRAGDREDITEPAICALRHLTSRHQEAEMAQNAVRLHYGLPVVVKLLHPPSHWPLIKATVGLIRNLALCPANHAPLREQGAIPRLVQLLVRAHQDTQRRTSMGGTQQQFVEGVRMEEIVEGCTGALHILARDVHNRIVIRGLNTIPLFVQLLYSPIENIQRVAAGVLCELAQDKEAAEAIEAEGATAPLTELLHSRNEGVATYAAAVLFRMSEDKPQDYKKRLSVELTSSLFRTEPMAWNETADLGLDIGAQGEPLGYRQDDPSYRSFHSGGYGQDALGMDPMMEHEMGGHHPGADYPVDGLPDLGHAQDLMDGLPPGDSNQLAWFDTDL

T4: B-cat-Halo (UniProt P35222 1-781)
T4 sequence (looked up): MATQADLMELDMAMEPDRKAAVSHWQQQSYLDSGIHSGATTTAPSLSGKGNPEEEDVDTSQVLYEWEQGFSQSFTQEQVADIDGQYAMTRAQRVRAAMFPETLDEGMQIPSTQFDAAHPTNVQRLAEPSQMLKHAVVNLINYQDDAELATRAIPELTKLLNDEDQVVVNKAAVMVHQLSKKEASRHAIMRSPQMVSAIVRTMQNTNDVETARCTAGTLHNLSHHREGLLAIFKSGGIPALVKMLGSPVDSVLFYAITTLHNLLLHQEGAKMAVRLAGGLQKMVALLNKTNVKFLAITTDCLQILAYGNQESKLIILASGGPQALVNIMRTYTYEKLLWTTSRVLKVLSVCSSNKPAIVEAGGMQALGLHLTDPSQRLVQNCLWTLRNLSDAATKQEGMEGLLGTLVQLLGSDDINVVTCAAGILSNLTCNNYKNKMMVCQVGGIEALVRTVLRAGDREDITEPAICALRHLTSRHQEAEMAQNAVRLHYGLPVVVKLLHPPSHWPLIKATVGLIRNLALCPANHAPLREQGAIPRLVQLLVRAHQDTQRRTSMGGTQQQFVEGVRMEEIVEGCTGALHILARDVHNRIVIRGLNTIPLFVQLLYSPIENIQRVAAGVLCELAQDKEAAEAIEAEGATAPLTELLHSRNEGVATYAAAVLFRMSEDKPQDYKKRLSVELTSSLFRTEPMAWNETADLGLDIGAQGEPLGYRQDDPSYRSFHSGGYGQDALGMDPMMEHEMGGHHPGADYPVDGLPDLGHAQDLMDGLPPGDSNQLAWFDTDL

T5: beta-catenin in DLD1 TCF/LEF luciferase reporter cells (UniProt P35222 1-781)
T5 sequence (looked up): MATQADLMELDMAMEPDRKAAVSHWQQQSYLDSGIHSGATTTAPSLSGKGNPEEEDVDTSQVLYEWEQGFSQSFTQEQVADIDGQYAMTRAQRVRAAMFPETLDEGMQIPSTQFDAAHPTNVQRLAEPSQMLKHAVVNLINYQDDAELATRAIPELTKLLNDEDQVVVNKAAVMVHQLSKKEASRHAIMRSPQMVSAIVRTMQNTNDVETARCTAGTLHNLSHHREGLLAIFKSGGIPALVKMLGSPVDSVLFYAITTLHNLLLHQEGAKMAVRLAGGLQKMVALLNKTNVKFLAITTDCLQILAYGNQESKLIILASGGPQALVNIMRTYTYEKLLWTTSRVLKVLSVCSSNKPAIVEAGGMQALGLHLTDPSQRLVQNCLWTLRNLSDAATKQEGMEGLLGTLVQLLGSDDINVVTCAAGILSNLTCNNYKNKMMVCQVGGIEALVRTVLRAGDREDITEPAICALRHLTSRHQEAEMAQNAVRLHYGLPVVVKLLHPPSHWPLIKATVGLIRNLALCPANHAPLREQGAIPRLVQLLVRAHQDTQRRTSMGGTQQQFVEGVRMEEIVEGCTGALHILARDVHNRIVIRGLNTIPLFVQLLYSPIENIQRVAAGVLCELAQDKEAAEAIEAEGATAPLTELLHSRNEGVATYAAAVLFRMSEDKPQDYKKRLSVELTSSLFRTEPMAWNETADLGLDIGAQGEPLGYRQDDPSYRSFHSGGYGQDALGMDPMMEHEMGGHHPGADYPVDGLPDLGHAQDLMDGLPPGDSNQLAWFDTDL


What was measured:
[1] = target: T1, beta-catenin in DLD1 TCF/LEF reporter …; assay: cell-based or functional assay
B-cat-Halo [2] = target: T2, B-cat-Halo; assay: cell-based or functional assay
[3] = target: T3, full-length beta-Catenin (Uniprot ID …); assay: AlphaScreen competition: full-length beta-catenin + biotin-TCF4(10-53) probe, peptide titrated
Summary of the method: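 Titrated peptide was preincubated 15 minutes at 20° C, then donor and acceptor beads were added for 60 minutes at 20° C protected from light. Reads were done in duplicate, and data were fitted to a 1:1 binding model with Hill slope; concentrations are final.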

[4] = target: T3, full-length beta-Catenin (Uniprot ID …); assay: fluorescence polarization competition: full-length beta-catenin + 5FAM-TCF4(10-53) probe, peptide titrated
Summary of the method: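 Incubate 60 minutes at 20° C. away from light, then read polarization in duplicate. Fit to 1:1 binding with hill slope.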

B-cat-Halo [5] = target: T4, B-cat-Halo; assay: cell-based or functional assay; remark: listed apart in the source
[6] = target: T5, beta-catenin in DLD1 TCF/LEF luciferase …; assay: cell-based or functional assay

Row | Binder | DLD1 reporter assay Abs IC50 [1] [µM] | NanoBRET Abs IC50 (B-cat-Halo [2]) [µM] | other results
1 | Ac-[αAllylPro]D[tBuAla][B5(4)]D[TfeGA]AAFT[PyrS2″][Phe(2-Cl)][Bta]Q-NHEt (staple 1-4, 4-11) [I-1240] | 4.9 | 11.5 | 
2 | Ac-[αAllylPro]DA[B5(4)]DEAA[Phe(3,5-F2)]V[S8]FWQ-NH2 (staple 1-4, 4-11, Stapled peptide composition; also called Ac-PL3-Asp-Ala-B5-Asp-Glu-Ala-Ala-35FF-Val-S8-Phe-Trp-Gln-NH2) [I-220] |  |  | EC50 [3]: 0.131 µM; EC50 [4]: 2.85 µM
3 | Ac-[αAllylPro]D[Cha][B5(5)]DQ[Lys(iPr)]AFL[PyrS2″]F[Bta]K-NH2 (staple 1-4, 4-11) [I-2429] |  |  | NanoBRET Abs IC50 (B-cat-Halo [5]): > 20 µM
4 | Ac-[αAllylPro]D[tBuAla][B5(5)]D[Phe(3-COOH)]AAFL[PyrS2][Phe(2-CF3)][Bta]QAA-NH2 (staple 1-4, 4-11) [I-2399] |  |  | DLD1 4% Abs IC50 [6]: 2.2 µM
5 | Ac-[αAllylPro]D[tBuAla][B5(4)]DDAAFT[PyrS2″][Phe(2-Cl)][Bta]S-NHEt (staple 1-4, 4-11) [I-1244] | 13.9 | 17.7 | 
6 | Ac-[αAllylPro]D[tBuAla][B5(4)]D[TfeGA]AAFT[PyrS2″][Phe(2-Cl)][Bta][Thr(ol)] (staple 1-4, 4-11) [I-1241] | 3.8 | 15.7 | 
7 | Ac-[αAllylPro]D[tBuAla][B5(4)]DDAAFT[PyrS2″][Phe(2-Cl)][Bta][Thr(ol)] (staple 1-4, 4-11) [I-1245] | 7.3 | 12.2 | 
